We go through two molecules from patent KR20150078472A (dated 2015).

In assay [1] the target is T1, recombinant AIMP1/p43 (ARS-interacting multifunctional protein 1) (human, UniProt Q12904 1-312, limits assumed).
T1 construct: Purified recombinant antigen used in SPR, on Luminex beads and as the ELISA standard; It calls the target human AIMP1/p43 in the summary and claims; also called AIMP1/p43 항원; 재조합 AIMP1/p43 표준물질
T1 sequence (looked up): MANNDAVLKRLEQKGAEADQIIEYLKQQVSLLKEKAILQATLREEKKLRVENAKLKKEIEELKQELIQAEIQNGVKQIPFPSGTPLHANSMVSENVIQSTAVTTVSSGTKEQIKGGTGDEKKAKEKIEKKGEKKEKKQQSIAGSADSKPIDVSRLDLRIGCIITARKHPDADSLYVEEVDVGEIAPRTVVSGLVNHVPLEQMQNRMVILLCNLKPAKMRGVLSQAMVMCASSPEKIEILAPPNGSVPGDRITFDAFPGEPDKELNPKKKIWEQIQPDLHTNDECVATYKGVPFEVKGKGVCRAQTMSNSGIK
Kind of assay: SPR (ProteOn XPR36), AIMP1/p43 amine-coupled on GLC chip, scFv 200-25 nM as analyte, 25°C.

The target in assay [2] is T2, Tyrosyl-tRNA synthetase (YRS) (UniProt P54577 1-528, limits assumed).
T2 construct: Recombinant antigen, purity above 90%, coupled to a Luminex bead; also called 타이로실-tRNA 합성효소
T2 sequence (looked up): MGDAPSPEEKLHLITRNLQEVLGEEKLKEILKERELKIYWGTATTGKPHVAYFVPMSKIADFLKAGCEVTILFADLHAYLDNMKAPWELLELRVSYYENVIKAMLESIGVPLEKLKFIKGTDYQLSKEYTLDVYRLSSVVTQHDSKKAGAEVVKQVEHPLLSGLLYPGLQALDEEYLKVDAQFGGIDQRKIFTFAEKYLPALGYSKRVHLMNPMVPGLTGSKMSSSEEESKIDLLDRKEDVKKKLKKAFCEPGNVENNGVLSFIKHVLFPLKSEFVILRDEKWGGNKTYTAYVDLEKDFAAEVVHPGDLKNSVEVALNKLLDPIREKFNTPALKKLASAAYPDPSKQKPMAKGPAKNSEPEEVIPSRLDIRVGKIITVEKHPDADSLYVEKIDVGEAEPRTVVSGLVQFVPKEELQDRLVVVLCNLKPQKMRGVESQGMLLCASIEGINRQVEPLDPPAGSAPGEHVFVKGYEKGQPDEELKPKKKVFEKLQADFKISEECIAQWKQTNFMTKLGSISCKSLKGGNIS
Kind of assay: Luminex multiplex bead assay, antigen-coupled beads, anti-HA-biotin and SA-PE detection.

In assay [3] the target is T3, Tryptophanyl-tRNA synthetase (WRS) (UniProt P23381 1-471, limits assumed).
T3 construct: Recombinant antigen, purity above 90%, coupled to a Luminex bead; also called 트립토파닐-tRNA 합성효소
T3 sequence (looked up): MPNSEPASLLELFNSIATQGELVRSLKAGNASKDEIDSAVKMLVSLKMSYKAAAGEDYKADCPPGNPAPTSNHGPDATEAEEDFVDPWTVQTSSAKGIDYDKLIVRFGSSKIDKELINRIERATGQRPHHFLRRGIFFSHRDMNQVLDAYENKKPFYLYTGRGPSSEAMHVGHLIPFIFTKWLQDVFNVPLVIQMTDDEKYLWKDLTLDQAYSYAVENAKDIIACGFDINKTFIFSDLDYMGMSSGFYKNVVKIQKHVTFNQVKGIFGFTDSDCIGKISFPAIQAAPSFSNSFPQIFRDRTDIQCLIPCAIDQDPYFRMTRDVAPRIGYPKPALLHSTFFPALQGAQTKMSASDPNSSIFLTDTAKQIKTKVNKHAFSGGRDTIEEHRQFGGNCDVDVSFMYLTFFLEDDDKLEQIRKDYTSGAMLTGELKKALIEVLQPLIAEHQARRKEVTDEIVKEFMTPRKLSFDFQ
Described as above.

For assay [4], the target named is T4, Seryl-tRNA synthetase (SRS) (UniProt P49591 1-514, limits assumed).
T4 construct: Recombinant antigen, purity above 90%, coupled to a Luminex bead; also called 세릴-tRNA 합성효소
The assay is described as above.

Assay [5] addresses T5, Histidyl-tRNA synthetase (HRS) (UniProt P12081 1-509, limits assumed).
T5 construct: Recombinant antigen, purity above 90%, coupled to a Luminex bead; also called 히스티딜-tRNA 합성효소
T5 sequence (looked up): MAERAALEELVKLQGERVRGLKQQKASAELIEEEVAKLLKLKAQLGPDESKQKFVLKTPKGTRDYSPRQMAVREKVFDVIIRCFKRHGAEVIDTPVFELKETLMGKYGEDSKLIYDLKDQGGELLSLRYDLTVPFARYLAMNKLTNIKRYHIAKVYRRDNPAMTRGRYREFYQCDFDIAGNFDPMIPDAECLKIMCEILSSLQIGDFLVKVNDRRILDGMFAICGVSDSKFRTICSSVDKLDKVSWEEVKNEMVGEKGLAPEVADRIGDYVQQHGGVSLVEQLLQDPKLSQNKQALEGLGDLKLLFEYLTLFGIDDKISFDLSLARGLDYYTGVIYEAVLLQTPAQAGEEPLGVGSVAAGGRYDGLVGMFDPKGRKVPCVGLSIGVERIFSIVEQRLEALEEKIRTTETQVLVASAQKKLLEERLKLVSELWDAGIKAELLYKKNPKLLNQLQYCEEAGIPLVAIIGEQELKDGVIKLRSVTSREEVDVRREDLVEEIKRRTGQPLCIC
Described as above.

The target of assay [6] is T6, Lysyl-tRNA synthetase (KRS) (UniProt Q15046 1-597, limits assumed).
T6 construct: Recombinant antigen, purity above 90%, coupled to a Luminex bead; also called 리실-tRNA 합성효소
The description is as above.

The target of assay [7] is T7, Glycyl-tRNA synthetase (GRS) (UniProt P41250 55-739, limits assumed).
T7 construct: Recombinant antigen, purity above 90%, coupled to a Luminex bead; also called 글리실-tRNA 합성효소
T7 sequence (looked up): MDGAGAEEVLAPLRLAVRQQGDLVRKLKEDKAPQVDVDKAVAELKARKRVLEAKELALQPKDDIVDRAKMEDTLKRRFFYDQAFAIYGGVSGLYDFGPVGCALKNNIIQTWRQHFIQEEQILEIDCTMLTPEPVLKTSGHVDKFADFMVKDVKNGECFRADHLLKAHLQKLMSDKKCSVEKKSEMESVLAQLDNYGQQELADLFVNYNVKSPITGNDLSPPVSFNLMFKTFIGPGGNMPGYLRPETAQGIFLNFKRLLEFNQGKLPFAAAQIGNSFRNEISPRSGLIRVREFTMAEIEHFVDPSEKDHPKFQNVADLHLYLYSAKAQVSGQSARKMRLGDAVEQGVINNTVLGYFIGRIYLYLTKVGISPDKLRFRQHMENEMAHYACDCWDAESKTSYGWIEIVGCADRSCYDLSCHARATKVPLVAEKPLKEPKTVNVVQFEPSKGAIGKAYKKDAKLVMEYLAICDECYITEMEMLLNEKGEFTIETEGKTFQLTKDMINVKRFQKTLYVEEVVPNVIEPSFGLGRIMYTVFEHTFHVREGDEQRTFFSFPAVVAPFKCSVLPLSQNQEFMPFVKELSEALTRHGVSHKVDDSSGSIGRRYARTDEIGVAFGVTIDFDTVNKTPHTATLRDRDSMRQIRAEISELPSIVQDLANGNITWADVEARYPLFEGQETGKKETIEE
The description is as above.

In assay [8] the target is T8, Asparaginyl-tRNA synthetase (NRS) (UniProt O43776 1-548, limits assumed).
T8 construct: Recombinant antigen, purity above 90%, coupled to a Luminex bead; also called 아스파라기닐딜-tRNA 합성효소
T8 sequence (looked up): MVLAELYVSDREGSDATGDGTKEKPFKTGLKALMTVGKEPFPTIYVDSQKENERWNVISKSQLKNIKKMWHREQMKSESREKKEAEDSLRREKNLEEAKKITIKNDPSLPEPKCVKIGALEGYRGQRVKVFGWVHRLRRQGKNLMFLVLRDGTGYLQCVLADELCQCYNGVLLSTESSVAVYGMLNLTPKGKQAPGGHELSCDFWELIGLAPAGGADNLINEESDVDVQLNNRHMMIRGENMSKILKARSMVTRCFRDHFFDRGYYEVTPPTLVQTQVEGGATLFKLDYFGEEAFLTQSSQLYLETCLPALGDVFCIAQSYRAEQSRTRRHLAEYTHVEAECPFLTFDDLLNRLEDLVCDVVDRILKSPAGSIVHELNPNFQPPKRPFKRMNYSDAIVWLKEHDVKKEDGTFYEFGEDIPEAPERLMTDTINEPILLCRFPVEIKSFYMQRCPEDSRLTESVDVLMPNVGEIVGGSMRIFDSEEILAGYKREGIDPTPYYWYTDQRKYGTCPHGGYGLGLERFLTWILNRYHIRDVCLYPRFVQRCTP
The assay is described as above.

For assay [9], the target named is T9, AIMP1/p43 natively expressed in human cells (HeLa cell lysate) (human, UniProt Q12904 2-312, limits assumed).
T9 construct: Endogenous protein, denatured on a western blot; also called human 세포에서 원래 발현된 AIMP1/p43
T9 sequence (looked up): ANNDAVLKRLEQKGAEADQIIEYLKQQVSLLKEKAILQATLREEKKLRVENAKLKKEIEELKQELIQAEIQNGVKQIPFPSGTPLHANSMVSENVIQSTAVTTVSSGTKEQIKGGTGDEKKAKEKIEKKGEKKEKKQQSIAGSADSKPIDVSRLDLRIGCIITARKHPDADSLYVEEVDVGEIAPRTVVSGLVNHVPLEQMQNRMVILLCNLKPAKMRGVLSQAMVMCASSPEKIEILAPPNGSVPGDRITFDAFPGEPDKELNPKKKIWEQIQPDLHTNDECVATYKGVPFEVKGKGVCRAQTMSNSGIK
Nature of the assay: western blot on HeLa cell lysate, periplasmic scFv, anti-HA-HRP detection. In general terms: In western blotting, separated proteins are transferred to a membrane and probed.

T4 sequence (P49591 whole entry): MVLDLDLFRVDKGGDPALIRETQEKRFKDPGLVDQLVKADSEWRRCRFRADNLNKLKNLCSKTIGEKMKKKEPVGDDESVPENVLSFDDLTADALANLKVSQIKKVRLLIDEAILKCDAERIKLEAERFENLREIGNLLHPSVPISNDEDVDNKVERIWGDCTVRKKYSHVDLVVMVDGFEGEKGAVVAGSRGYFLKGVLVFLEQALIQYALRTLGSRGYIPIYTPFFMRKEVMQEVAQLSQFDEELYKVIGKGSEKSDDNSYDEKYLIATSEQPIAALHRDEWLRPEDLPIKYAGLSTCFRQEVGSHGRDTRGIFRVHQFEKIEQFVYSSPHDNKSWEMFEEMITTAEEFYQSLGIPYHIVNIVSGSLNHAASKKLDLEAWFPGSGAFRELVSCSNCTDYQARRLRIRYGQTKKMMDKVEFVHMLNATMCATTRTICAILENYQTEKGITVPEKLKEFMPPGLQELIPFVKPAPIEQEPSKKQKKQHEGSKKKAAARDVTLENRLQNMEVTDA
T6 sequence (Q15046 whole entry): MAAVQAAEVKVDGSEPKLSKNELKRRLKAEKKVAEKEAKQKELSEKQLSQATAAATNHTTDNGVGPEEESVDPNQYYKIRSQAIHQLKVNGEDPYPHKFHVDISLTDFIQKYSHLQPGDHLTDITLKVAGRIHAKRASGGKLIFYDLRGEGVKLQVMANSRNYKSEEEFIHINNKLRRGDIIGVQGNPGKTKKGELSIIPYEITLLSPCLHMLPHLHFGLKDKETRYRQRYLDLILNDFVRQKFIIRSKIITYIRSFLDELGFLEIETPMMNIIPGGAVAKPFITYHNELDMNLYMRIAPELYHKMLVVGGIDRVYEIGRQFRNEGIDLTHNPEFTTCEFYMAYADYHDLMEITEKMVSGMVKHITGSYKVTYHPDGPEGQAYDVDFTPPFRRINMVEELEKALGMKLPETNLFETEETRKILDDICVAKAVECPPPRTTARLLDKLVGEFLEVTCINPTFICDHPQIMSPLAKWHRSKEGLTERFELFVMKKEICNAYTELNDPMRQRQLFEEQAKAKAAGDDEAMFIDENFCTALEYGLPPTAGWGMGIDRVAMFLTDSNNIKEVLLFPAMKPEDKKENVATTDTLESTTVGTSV

B1: anti-AIMP1/p43 scFv Biocon-AM1-1 (scFv)
scFv: EVQLLEFLGEGLVQPGGSLRLSCAASGFTFSSYDMSWVRQAPGKGLEWVSVISSDGGSTYYADSVRGRFTISRDNSKNTLYLQMNSLRAEDTAVYYCAKDVMKTGTLVFDYWGQGTLVTVSSGGGGSGGGGSGGGGSQSVLTQPPSASGTPGQRVTISCSGSSSNIGSNDVSWYQQLPGTAPKLLIYADSKRPSGVPDRFSGSKSGTSASLAISGLRSEDEADYYCGSWDDSLSGYVFGGGTKLTVL
notes: Expressed from pComb3X in the E. coli periplasm; also called antibody i)
As for B1, the binding result is listed as “binds” in [1]; “no binding” in assay [2]; “no binding” in [3]; “no binding” in assay [4]; “no binding” in assay [5]; “no binding” in assay [6]. The binding result in assay [7] was “no binding”; in [8] it was “no binding”; in assay [9], “binds”.

B2: anti-AIMP1/p43 scFv Biocon-AM1-2 (scFv)
scFv: EVQLLESGGGLVQPGGSLRLSCAASGFTFSNYDMSWVRQAPGKGLEWVSSIYPNGSSKYYADSVKGRFTISRDNSKNTLYLQMNSLRAEDTAVYYCARDVLLCISMRCYYADGMDVWGQGTLVTVSSGGGGSGGGGSGGGGSQSVLTQPPSASGTPGQRVTISCSGSSSNIGNNAVNWYQQLPGTAPKLLIYANSHRPSGVPDRFSGSQSGTSASLAISGLRSEDEADYYCGSWDSSLNGYVFGGGTKLTVL
notes: Expressed from pComb3X in the E. coli periplasm; also called antibody ii)
B2: the binding result was “binds” in assay [1]; “no binding” in assay [2]; “no binding” in [3]; “no binding” in assay [4]; “no binding” in assay [5]; “no binding” in [6]. The binding result in [7] is given as “no binding”; in assay [8], “no binding”; in assay [9], “binds”.
